In US20180185455A1 (OCTAPHARMA, published 2018):

Experiments:
recombinant Factor VIII [1] = biological target: recombinant Factor VIII (UniProt P00451); test: SPR (Biacore 2000), rFVIII coupled to CM5 chip, fragment injected
recombinant Factor VIII [2] = biological target: recombinant Factor VIII (UniProt P00451); test: SPR (Biacore 2000), rFVIII coupled to CM5 chip, VWF injected
[3] = biological target: recombinant fragment III monomer with C-terminal Strep-Tag (human) (UniProt P04275); test: SPR (Biacore 2000), fragment III monomer immobilized on CM5, FVIII concentration series injected
[4] = biological target: recombinant fragment III dimer with C-terminal Strep-Tag (human) (UniProt P04275); test: SPR (Biacore 2000), fragment III dimer immobilized on CM5, FVIII concentration series injected
[5] = biological target: plasma derived full length Von Willebrand Factor (human) (UniProt P04275); test: SPR (Biacore 2000), plasma derived flVWF immobilized on a CM5 chip, FVIII concentration series injected; mean of n=4 per the legend
[6] = biological target: T1, plasma derived full length Von Willebrand Factor (human, UniProt P04275 764-2813); test: SPR (Biacore 2000), collagen type III coupled to CM5 chip, VWF injected
T1 construct: Plasma VWF is multimeric; also called pdVWF; flVWF
Procedure: (§1) The analysis was carried out using Biacore 2000 instrument (GE Healthcare) according to Romjin et al. 2003 with modifications. Briefly human pepsin-digested collagen type III was covalently bound to the surface of a CM5 sensor chip. Subsequently the samples were injected over the sensor chip surface. The running buffer was 10 mM HEPES, 150 mM NaCl, 3.4 mM EDTA, 0.005% Tween 20.

[7] = biological target: T2, fragment III (SPIII, res. 764-2128) from plasma derived Von Willebrand Factor (human, UniProt P04275 764-2128); test: SPR (Biacore 2000), collagen type III coupled to CM5 chip, fragment injected
T2 construct: Made by S. aureus V-8 protease digestion of pdVWF; also called VWF fragment III
Procedure: as §1

fragment II (res. 764-1673) of Von Willebrand Factor (from UniProt P04275 764-1673)
Kd (recombinant Factor VIII [1]): 155 nM

fragment III (SPIII, res. 764-2128) from plasma derived Von Willebrand Factor (from UniProt P04275 764-2128)
Kd (recombinant Factor VIII [1]): 6.18 nM

plasma derived full length Von Willebrand Factor (from UniProt P04275 764-2813)
Kd (recombinant Factor VIII [2]): 0.67 nM

recombinant Factor VIII (from UniProt P00451 20-2351)
Kd [3]: 14.3 nM
Kd [4]: 1.9 nM
Kd [5]: 0.25 nM

B1: human pepsin-digested collagen type III (other, UniProt P02461 168-1196, looked up)
chain: GLAGYPGPAGPPGPPGPPGTSGHPGSPGSPGYQGPPGEPGQAGPSGPPGPPGAIGPSGPAGKDGESGRPGRPGERGLPGPPGIKGPAGIPGFPGMKGHRGFDGRNGEKGETGAPGLKGENGLPGENGAPGPMGPRGAPGERGRPGLPGAAGARGNDGARGSDGQPGPPGPPGTAGFPGSPGAKGEVGPAGSPGSNGAPGQRGEPGPQGHAGAQGPPGPPGINGSPGGKGEMGPAGIPGAPGLMGARGPPGPAGANGAPGLRGGAGEPGKNGAKGEPGPRGERGEAGIPGVPGAKGEDGKDGSPGEPGANGLPGAAGERGAPGFRGPAGPNGIPGEKGPAGERGAPGPAGPRGAAGEPGRDGVPGGPGMRGMPGSPGGPGSDGKPGPPGSQGESGRPGPPGPSGPRGQPGVMGFPGPKGNDGAPGKNGERGGPGGPGPQGPPGKNGETGPQGPPGPTGPGGDKGDTGPPGPQGLQGLPGTGGPPGENGKPGEPGPKGDAGAPGAPGGKGDAGAPGERGPPGLAGAPGLRGGAGPPGPEGGKGAAGPPGPPGAAGTPGLQGMPGERGGLGSPGPKGDKGEPGGPGADGVPGKDGPRGPTGPIGPPGPAGQPGDKGEGGAPGLPGIAGPRGSPGERGETGPPGPAGFPGAPGQNGEPGGKGERGAPGEKGEGGPPGVAGPPGGSGPAGPPGPQGVKGERGSPGGPGAAGFPGARGLPGPPGSNGNPGPPGPSGSPGKDGPPGPAGNTGAPGSPGVSGPKGDAGQPGEKGSPGAQGPPGAPGPLGIAGITGARGLAGPPGMPGPRGSPGPQGVKGESGKPGANGLSGERGPPGPQGLPGLAGTAGEPGRDGNPGSDGLPGRDGSPGGKGDRGENGSPGAPGAPGHPGPPGPVGPAGKSGDRGESGPAGPAGAPGPAGSRGAPGPQGPRGDKGETGERGAAGIKGHRGFPGNPGAPGSPGPAGQQGAIGSPGPAGPRGPVGPSGPPGKDGTSGHPGPIGPPGPRGNRGERGSEGSPGHPGQPGPPGPPGAPGPC
notes: also called collagen III
Kd [6]: 0.75 nM
Kd [7]: 17 nM
